Measurements published in PMC11336141.

Target: human somatostatin receptor 2, Tango construct (human) (UniProt P30874)
Sequence (P30874 whole entry): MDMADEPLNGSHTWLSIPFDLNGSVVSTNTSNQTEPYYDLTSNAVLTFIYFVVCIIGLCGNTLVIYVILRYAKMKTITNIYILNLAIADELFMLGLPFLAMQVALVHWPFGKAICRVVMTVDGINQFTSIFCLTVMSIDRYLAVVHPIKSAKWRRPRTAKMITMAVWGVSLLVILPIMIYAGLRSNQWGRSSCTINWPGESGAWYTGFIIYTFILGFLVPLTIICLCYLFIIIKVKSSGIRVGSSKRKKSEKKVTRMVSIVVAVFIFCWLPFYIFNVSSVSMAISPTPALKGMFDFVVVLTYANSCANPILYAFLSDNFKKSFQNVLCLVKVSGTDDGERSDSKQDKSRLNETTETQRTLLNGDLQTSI

octreotide (peptide)
EC50, PRESTO-Tango β-arrestin recruitment assay: 0.9 nM
